The series deals with NF-kB1/p50-p50 (recombinant) (UniProt P19838 1-433). The series can be described thus: EMSA; without OGG1, time course; WCL/NE: 10 mM Tris-HCl pH 7.5, 1 mM EDTA, 50 mM NaCl, 2 mM DTT, 5% glycerol, 0.5% NP-40, BSA, poly(I:C), RT 20 min; His-IRF3: 10 mM Tris pH 7.5, 50 mM KCl, 1 mM DTT, 1% glycerol, 5 mM MgCl2, 0.05% NP-40, poly(I:C), RT 30 min. As to conditions: protein: recombinant; chain copies: 2; label: Cy5 on 3' end of bottom strand (Methods text says 5'-Cy5); blunt.
Chain of NF-kB1/p50-p50 (recombinant) (P19838 1-433): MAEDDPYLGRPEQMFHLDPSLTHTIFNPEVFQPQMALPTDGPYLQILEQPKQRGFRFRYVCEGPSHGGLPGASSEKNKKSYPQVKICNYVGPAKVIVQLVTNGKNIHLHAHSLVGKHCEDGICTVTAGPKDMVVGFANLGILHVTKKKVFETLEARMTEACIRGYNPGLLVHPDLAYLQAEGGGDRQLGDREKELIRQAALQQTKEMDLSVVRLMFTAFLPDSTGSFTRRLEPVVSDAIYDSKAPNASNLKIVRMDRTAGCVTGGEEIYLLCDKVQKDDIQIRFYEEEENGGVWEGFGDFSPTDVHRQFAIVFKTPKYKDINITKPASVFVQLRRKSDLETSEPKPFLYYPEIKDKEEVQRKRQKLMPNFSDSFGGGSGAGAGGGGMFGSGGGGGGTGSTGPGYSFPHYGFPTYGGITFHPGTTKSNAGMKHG

B1: Pr2 (dsDNA)
DNA 1: CTGTGTTTTCACTTTTCCTACATCAGCTGGGACTGCCCTTCTGTCAGGGATAA
DNA 2: TTATCCCTGACAGAAGGGCAGTCCCAGCTGATGTAGGAAAAGTGAAAACACAG
modifications: 8-oxoG at top position 48
On to B1, for which the binding result is recorded as “binds”.

Source of the values: PMC10436556, “Epigenetic control of type III interferon expression by 8-oxoguanine and its reader 8-oxoguanine DNA glycosylase1”.
